Laboratory results published in patent US20200282035A1 (MILTENYI BIOTEC B V, published 2020).

B1: CD318 specific antibody (antibody, V domains shown)
VH: EVQLQQSGAELVRPGALVKLSCKASGFNIKDYYIHWVKQRPEQGLEWIGWIDPENGHTIYDPKFQGKASITADTSSNTAYLQLSSLTSEDTAVYYCARLTGTTYAMDYWGQGTSVTVSS
VL: DIVMTQSHKFMSTSVGDRVSITCKASQDVSTAVAWYQQKSGQSPKLLIYWASTRHTGVPDRFTGSGSGTDYTLTISSVQAEDLALYYCQQHYSTPYTFGGGTKLEIK
notes: also called CD318 VH
B2: TSPAN8 specific antibody (antibody, V domains shown)
VH: EVKLLESGGGLVQPGGSMRLSCAASGFTFTDFYMNWIRQPAGKAPEWLGFIRNKASGYTTEYNPSVKGRFTISRDNTQNMLYLQMNTLRAEDTATYYCARAHSYYGYDYFDYWGQGVMVTVSS
VL: DIQMTQSPASLSASLEEIVTITCQASQDIGNWLSWYQQKPGKSPQLLIYGATSLADGVPSRFSGSRSGTQYSLKISRLQVEDIRIYYCLQAYSAPWTFGGGTKLELK
notes: also called TSPAN8 VH

Tests used:
CD318 = target: T1, CD318 (human, UniProt Q9H5V8 30-836); experiment: antibody used for staining of human pancreatic cancer cells (flow cytometry, immunohistochemistry; Example 1); told in words only
T1 construct: whole, on cells
T1 sequence (looked up): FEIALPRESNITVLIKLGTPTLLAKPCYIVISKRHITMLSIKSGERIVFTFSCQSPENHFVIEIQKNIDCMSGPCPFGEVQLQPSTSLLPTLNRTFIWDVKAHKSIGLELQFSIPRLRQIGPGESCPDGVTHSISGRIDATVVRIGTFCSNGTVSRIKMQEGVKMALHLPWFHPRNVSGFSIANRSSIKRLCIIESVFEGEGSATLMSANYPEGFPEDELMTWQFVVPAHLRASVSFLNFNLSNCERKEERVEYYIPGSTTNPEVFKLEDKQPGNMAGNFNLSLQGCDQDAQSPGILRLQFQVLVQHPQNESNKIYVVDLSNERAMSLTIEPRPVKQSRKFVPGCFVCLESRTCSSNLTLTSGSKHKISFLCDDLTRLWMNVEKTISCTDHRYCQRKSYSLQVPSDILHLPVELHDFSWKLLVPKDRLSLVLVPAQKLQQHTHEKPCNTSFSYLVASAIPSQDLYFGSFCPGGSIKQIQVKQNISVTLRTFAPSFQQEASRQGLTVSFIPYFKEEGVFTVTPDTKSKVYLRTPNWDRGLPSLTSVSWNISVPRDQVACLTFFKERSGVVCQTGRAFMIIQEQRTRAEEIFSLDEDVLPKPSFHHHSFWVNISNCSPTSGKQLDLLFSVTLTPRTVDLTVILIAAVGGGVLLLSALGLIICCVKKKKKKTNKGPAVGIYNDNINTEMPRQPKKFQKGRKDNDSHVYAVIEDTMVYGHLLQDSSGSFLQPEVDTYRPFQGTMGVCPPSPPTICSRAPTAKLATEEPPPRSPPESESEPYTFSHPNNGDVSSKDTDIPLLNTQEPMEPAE

TSPAN8 = target: T2, TSPAN8 (human, UniProt P19075 1-237); experiment: as above
T2 construct: whole, on cells
T2 sequence (looked up): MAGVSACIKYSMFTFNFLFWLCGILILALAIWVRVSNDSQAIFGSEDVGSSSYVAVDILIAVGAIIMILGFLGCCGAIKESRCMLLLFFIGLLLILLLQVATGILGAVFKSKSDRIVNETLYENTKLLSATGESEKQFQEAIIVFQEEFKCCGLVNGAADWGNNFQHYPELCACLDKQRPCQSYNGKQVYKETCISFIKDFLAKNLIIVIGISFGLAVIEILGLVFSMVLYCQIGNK

Binder | binding result (CD318) | binding result (TSPAN8)
B1 | binds | 
B2 |  | binds
